Reference: patent US9688764B2, “Methods of treating breast cancer by administering anti-human prolactin receptor (PRLR) antibodies” (REGENERON PHARMACEUTICALS, INC., priority 2013, dated 2017)

T1: T47D (native PRLR expressing cell line) (Homo sapiens, UniProt P16471)
T1 construct: a native PRLR expressing cell line (T47D); endogenous in cells; host or cells: T47D
T1 sequence (P16471 25-622): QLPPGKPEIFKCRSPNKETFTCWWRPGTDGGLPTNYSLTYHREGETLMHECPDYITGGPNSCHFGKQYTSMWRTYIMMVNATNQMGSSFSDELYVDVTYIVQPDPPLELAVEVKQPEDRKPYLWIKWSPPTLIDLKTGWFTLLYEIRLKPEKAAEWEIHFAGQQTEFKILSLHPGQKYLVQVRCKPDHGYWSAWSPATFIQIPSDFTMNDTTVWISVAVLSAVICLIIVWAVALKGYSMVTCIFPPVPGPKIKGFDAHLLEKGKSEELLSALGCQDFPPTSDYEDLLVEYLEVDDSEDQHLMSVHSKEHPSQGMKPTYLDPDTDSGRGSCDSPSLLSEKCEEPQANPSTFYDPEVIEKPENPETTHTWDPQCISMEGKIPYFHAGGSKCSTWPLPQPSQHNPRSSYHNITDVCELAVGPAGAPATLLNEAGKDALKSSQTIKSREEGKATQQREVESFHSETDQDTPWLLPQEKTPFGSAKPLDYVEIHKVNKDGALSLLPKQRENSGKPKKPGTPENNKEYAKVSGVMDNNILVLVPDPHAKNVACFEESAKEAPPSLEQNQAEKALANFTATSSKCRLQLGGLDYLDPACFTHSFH

T2: HEK293/mPRLR (Mus musculus, UniProt Q08501)
T2 construct: HA; expressed in transfected cells; host or cells: HEK293
T2 sequence (Q08501 20-608): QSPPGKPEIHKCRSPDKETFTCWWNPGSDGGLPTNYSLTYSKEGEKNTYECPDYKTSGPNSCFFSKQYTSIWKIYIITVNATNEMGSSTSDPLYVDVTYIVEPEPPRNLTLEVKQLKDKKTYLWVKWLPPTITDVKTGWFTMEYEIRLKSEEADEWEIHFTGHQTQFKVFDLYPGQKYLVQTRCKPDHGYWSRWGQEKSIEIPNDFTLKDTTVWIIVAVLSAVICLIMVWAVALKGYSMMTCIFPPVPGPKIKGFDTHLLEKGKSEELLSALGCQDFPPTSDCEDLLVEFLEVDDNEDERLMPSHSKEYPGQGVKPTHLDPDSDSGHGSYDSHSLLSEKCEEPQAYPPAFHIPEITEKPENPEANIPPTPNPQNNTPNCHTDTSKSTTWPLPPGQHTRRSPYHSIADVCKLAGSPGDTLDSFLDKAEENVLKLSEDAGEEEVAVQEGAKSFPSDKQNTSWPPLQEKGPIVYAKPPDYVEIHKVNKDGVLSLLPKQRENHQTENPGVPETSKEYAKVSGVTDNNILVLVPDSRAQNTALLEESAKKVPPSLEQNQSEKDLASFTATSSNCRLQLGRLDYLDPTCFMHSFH

T3: HEK293/hPRLR (Homo sapiens, UniProt P16471)
T3 construct: HA; expressed in transfected cells; host or cells: HEK293
T3 sequence (P16471 25-622): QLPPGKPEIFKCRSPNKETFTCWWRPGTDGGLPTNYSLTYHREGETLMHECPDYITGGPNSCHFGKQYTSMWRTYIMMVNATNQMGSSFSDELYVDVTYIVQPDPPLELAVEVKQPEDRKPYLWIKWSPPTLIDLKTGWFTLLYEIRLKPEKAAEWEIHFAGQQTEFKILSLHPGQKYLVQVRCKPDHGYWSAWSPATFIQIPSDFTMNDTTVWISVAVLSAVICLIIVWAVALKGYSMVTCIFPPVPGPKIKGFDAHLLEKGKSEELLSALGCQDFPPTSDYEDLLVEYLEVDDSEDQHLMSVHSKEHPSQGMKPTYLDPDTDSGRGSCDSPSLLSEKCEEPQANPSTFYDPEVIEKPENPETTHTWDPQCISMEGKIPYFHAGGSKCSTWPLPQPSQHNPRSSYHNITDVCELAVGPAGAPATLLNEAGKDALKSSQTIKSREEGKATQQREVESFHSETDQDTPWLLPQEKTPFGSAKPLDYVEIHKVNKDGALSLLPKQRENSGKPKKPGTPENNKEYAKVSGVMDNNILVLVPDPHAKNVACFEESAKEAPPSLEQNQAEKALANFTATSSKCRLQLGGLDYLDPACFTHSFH


Experiments:
[1] = system: HEK293 (non-expressing parental cells); experiment: FACS cell surface binding
Method: (§1) The ability of anti-PRLR antibodies to selectively bind PRLR expressing cell lines was next determined. Human, monkey macaca fascicularis, and mouse PRLR constructs with an HA tag were stably introduced into HEK293 cells via Lipofectamine 2000-mediated transfection methodology. Transfectants (HEK293/hPRLR, HEK293/mfPRLR and HEK293/mPRLR) were selected for at least 2 weeks in complete growth media plus G418.
(§2) Cell surface expression of PRLR on 293/hPRLR cells was assessed via FACS analysis. Briefly, 1×10^5 cells were incubated with 10 μg/ml of Control antibody I, or an isotype control for 30 min on ice in antibody dilution buffer. Following two washes with antibody dilution buffer, cells were incubated with 10 μg/ml of PE conjugated anti-human secondary antibodies for 30 min on ice. Following two additional washes, samples were run on a Hypercyt® cytometer and analyzed in FORECYT™ (IntelliCyt, Albuquerque, N. Mex.). The mean fluorescence intensities (MFI) were expressed as fold change above isotype control levels (background). FACS binding confirmed that Control I selectively bound to 293/hPRLR expressing cells with MFIs that were 30 fold above background (isotype ctrl) levels and less than 2 fold binding on parental cells.
(§3) Next, the anti-PRLR antibodies of the present invention were tested via FACS for selective binding to the engineered overexpressing PRLR HEK293 cell lines, as well as to non-expressing HEK293 cells and a native PRLR expressing cell line (T47D).

[2] = target: T1, T47D (native PRLR expressing cell line); experiment: FACS cell surface binding
Method: as §1, §2, §3

HEK293/mPRLR = target: T2, HEK293/mPRLR; experiment: FACS cell surface binding
Method: as §1, §2, §3

HEK293/hPRLR = target: T3, HEK293/hPRLR; experiment: FACS cell surface binding
Method: as §1, §2, §3

[3] = target: mfPRLR.mmh (monomeric macaca fascicularis PRLR); experiment: Surface plasmon resonance (Biacore T200), mAb-capture format; type: binding; conditions: antibody-capture format, analyte mfPRLR.mmh
Method: (§4) Antibodies, expressed as human IgG1 Fc “[…]” designations), were captured onto an anti-human Fc sensor surface (mAb-capture format), and soluble monomeric (hPRLR.mmh; SEQ ID NO:401, or macaca fascicularis (mf) PRLR.mmh; SEQ ID NO:403) or dimeric (hPRLR.mFc; SEQ ID NO:402) PRLR protein was injected over the sensor surface. Measurements were conducted on a T200 Biacore instrument. Kinetic association (ka) and dissociation (kd) rate constants were determined by processing and fitting the data to a 1:1 binding model using Scrubber 2.0 curve fitting software.

[4] = target: T4, hPRLR.mmh (soluble monomeric human PRLR) (Homo sapiens, UniProt P16471); experiment: as above; type: binding; conditions: antibody-capture format, analyte hPRLR.mmh
T4 construct: soluble monomeric (hPRLR.mmh); mmh (myc-myc-hexahistidine)
Method: as §4

[5] = target: T5, hPRLR.mFc (soluble dimeric human PRLR) (Homo sapiens, UniProt P16471); experiment: as above; type: binding; conditions: antibody-capture format, analyte hPRLR.mFc
T5 construct: dimeric (hPRLR.mFc)
Method: as §4

Chain of mfPRLR.mmh (monomeric macaca fascicularis PRLR) (as listed by the source): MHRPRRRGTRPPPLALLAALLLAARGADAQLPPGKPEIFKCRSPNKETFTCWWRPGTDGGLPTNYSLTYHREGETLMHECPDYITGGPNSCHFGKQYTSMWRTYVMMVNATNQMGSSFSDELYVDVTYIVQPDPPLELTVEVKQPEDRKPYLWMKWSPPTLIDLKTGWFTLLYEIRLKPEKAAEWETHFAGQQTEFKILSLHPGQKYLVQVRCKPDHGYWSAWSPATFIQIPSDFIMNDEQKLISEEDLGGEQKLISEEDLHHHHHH
T5 sequence (P16471 with tags, fused parts or gaps): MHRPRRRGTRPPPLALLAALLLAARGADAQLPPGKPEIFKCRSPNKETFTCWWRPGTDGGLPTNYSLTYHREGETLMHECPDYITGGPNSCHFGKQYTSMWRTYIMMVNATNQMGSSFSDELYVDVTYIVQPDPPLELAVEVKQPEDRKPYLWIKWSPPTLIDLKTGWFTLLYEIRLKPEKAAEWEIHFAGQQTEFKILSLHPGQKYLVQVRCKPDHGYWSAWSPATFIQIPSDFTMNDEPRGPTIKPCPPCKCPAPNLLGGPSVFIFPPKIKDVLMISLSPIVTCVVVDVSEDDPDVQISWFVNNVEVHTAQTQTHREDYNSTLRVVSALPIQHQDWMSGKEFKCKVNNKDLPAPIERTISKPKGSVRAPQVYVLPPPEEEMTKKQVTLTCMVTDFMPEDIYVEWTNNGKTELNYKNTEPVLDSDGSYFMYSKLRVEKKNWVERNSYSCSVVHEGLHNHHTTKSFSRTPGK
T4 sequence (P16471 with tags, fused parts or gaps): as the sequence (as listed by the source) above, with V105I, T139A, M154I, T187I, I236T counted along it

Molecule	FACS Cell Binding (Fold Above Background) [1] [Fold Above Background]	FACS Cell Binding (Fold Above Background) [2] [Fold Above Background]	FACS Cell Binding (Fold Above Background) (HEK293/mPRLR)	FACS Cell Binding (Fold Above Background) (HEK293/hPRLR)	Kd ([3]; 25° C.) [nM]	T½ ([3]; 25° C.) [min]	Kd ([3]; 37° C.) [nM]	T½ ([3]; 37° C.) [min]	Kd ([4]; 25° C.) [nM]	T½ ([4]; 25° C.) [min]	Kd ([4]; 37° C.) [nM]	T½ ([4]; 37° C.) [min]	Kd ([5]; 25° C.) [nM]	T½ ([5]; 25° C.) [min]	Kd ([5]; 37° C.) [nM]	T½ ([5]; 37° C.) [min]
H1H6782P: anti-PRLR antibody, human IgG1 Fc; HCVR/LCVR SEQ ID NOs 66/74; non-blocking (antibody, V domains shown, human IgG1 Fc) VH: EVQLVESGGGLVQPGRSLRLSCAASGFTFDDYAMHWVRQAPGKGLEWVSGIIWNSGHIGYGDSVKGRFTISRDNAKKSLYLQMNSLRAEDTALYYCARDSGRYQSYFDYWGQGTLVTVSS VL: DIQMTQSPSTLSASVGDRVTITCRASHIISSWLAWYQQKPGKAPKVLIFKASSLESGVPSRFSGSGSGTEFTLTISSLQPDDFATYYCQQYNTYSRTFGQGTKVEIK	3	43	4	41	1.05	41	1.99	15	0.685	47	1.28	16	0.225	162	0.217	89
H1H6792P: anti-PRLR antibody, human IgG1 Fc; HCVR/LCVR SEQ ID NOs 130/138 (antibody, V domains shown, human IgG1 Fc) VH: EVQLVESGGGLVQPGRSLRLSCAASGFTLDDHAVHWVRQAPGKGLEWVSGISWNSVYIDYADSVKGRFTIFRDNAKNSLYLQMNSLRAEDTAFYYCARDIEGARDYWGQGTLVTVSS VL: DIQMTQSPSSLSASVGDRVTITCRASQGIRNDLGWYQQKPGKAPKRLIYAASSLQSGVPSRFSGSGYGTEFTLTISSLQPEDFAPYYCLQHNSYPLTFGGGTKVEIK	1	37	3	37	4.17	12	9.37	4	2.45	15	5.27	5	0.313	122	0.352	66
H1H6790P: anti-PRLR antibody, human IgG1 Fc; HCVR/LCVR SEQ ID NOs 114/122 (antibody, V domains shown, human IgG1 Fc) VH: EVQLVESGGGLVQPGGSLRLSCAASGFTFSSYAMTWVRQAPGKGLEWVSAITGSVGNTYYADSVKGRFTISRDNSKNTLYLQMNSLGAEDTAEYYCAKGAGMTTNWYLDLWGRGTLVTVSS VL: DIVMTQSPDSLAVSLGARATINCKSSQSVLYSSNNQNYLTWYQQKPGQPPKLLIKWASTRESGVPDRFSGSGSGTDFTLTISSLQAEDVAVYYCQQYASSPYTFGQGTKLEIK	1	34	1	37	2.04	15	5.22	4	1.41	14	3.5	4	0.192	111	0.306	58
H1H6781P: anti-PRLR antibody, human IgG1 Fc; HCVR/LCVR SEQ ID NOs 50/58 (antibody, V domains shown, human IgG1 Fc) VH: EVQLVESGGDLVQPGESLRLSCTASGFTFNSYEMNWVRQAPGKGLEWVSYISSSGGTKYYVDSVKGRFTISRDNAKKSLYLQMNSLRADDTALYYCARLNGVDVFDIWGQGTMVTVSS VL: DIQMTQSPSSLSASVGDRVTITCRASQDIFNYLAWFQQKPGKVPELLISAASTLQSGVPSRFSGSGSGTYFTLTISSLQPEDIATYYCQRYNSAPLTFGGGTKVEIK	1	40	1	37	0.986	82	1.08	43	0.61	91	0.91	37	0.236	191	0.226	117
H1H6785P: anti-PRLR antibody, human IgG1 Fc; HCVR/LCVR SEQ ID NOs 98/106 (antibody, V domains shown, human IgG1 Fc) VH: EVQLVESGGGLVQPGGSLRLSCAASGFTFSSYEMNWVRQAPGKGLEWISYISSRGGTIYYADSIKGRFTIYRDNARNSLYLQMNSLRAEDTAIYYCARLSGVDIFDIWGQGTMVTVSS VL: DIQMTQSPSSLSASVGDRVTITCRASQGISNYLAWYQQKPGKVPKLLIYFASTLQSGVPSRFSGGGSGTDFTLTISSLQPEDVATYYCQRYNSAPLTFGGGTKVEIK	1	40	2	37	0.738	69	1.52	26	0.567	68	1.14	24	0.231	190	0.256	99
